Experimental data: patent US20050085420A1, “Method of modulating apoptosis and compositions thereof” (priority 2003, published 2005)

Key:
MEFs = test: G418 selection of mouse embryonic fibroblasts; format: cell-based; settings: 0.3 mg/ml G418, 3 days
Protocol: vdac1 -/- and vdac2 -/- embryonic stem (ES) cells were described previously S. Wu, M. J. Sampson, W. K. Decker, W. J. Craigen, Biochim Biophys Acta 1452, 68-78. (1999). 129/SvEv derived ES cell clones with homozygous deletion of vdac2 alleles were microinjected into blastocysts from C57BL/6 female mice. Mouse embryonic fibroblasts derived from E13.5 day chimeric embryos were treated with 0.3 mg/ml G418 (GIBCO-BRL) at second passage for 5 days to select for vdac2 -/- cells. Normally, 100% of MEFs died at 3 days in the presence of 0.3 mg/ml G418. Deficiency of VDAC2 in cells following G418 selection was confirmed by an immunoblot developed with an anti-VDAC2 Ab.

[1] = biological target: T1, N-terminal HA-tagged VDAC2 (murine, UniProt Q60930 1-295); test: anti-HA immunoprecipitation in 1% CHAPS or 0.2% NP40, anti-BIM immunoblot
T1 construct: also called HA-VDAC2; hemagglutinin (HA)-tagged version of VDAC2; not shown: N-terminal HA tag
T1 sequence (looked up): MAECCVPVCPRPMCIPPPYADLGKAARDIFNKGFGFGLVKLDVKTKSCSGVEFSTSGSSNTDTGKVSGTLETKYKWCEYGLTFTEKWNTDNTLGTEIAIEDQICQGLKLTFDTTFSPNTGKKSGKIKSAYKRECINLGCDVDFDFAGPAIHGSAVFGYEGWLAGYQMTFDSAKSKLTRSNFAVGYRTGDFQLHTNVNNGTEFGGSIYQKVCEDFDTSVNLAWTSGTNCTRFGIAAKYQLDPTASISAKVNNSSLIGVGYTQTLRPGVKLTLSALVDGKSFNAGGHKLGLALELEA
Text: Mitochondria isolated from wild-type MEFs or vdac2 -/- mouse embryonic fibroblasts (MEFS) with retroviral transduction of N-terminal HA-tagged VDAC2 were solubilized in either 1% CHAPS or 0.2% NP40 buffer, followed by anti-HA immunoprecipitation.

[2] = biological target: BCL-XL (in Bax, Bak doubly deficient MEFs) (mouse, UniProt Q64373-1 1-233); test: anti-HA co-immunoprecipitation in 1% CHAPS
BAX = biological target: T2, BAX (Mus musculus, UniProt Q07813); test: Co-precipitation of endogenous BAX with HA-tagged VDAC2; format: binding; settings: wt MEF mitochondria, CHAPS, anti-HA immunoprecipitation
T2 construct: endogenous in cells; host or cells: wt MEFs transduced with HA-VDAC2 retrovirus; mitochondria solubilized in 1% CHAPS or 0.2% NP-40
Protocol: (§1) FIG. 2E is a photograph depicting mitochondria isolated from wt MEFs (upper panel) or Bax, Bak doubly deficient MEFs (lower panel), which were transduced with retrovirus expressing N-terminal HA-tagged VDAC2, BAK or BAX and were solubilized in either 1% CHAPS or 0.2% NP-40 buffer, followed by immunoprecipitation with an anti-HA antibody. The immunoprecipitates were analyzed by an immunoblot developed with anti-HA-Biotin, anti-BAK, anti-BAX, or anti-VDAC2 Abs as indicated.
(§2) An HA-tagged BAK, but not HA-tagged BAX co-precipitated endogenous VDAC2 (FIG. 2E).

BAK = biological target: T3, BAK (Mus musculus, UniProt O08734); test: Co-precipitation of endogenous BAK with HA-tagged VDAC2; format: binding; settings: wt MEF mitochondria, CHAPS, anti-HA immunoprecipitation
T3 construct: endogenous in cells; host or cells: wt MEFs transduced with HA-VDAC2 retrovirus; mitochondria solubilized in 1% CHAPS or 0.2% NP-40
T3 sequence (O08734 2-209 limits assumed): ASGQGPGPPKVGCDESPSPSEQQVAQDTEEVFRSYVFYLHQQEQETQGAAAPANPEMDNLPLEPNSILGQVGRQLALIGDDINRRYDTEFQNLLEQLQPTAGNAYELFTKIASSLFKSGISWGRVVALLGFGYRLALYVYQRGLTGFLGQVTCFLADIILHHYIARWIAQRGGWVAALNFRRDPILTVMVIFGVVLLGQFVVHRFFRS
T3 sequence (Q60930 1-295 partner): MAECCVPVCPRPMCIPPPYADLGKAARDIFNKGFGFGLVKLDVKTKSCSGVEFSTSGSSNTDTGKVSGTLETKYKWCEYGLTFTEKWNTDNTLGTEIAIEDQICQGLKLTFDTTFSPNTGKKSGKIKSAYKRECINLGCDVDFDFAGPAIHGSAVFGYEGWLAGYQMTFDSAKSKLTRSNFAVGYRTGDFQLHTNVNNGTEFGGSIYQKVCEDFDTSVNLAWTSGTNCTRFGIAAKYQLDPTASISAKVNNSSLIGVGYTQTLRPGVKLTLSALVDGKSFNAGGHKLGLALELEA
Protocol: as §1, §2

VDAC2 = biological target: T4, VDAC2 (Mus musculus, UniProt Q60930); test: Anti-HA immunoprecipitation of HA-tagged VDAC2 with BH3-only molecules; format: binding; settings: mitochondria, anti-HA immunoprecipitation, 1% CHAPS (or 0.2% NP40)
T4 construct: expressed in transfected cells; host or cells: vdac1 -/-, vdac3 -/- mouse fibroblasts; wt or vdac2 -/- MEFs; Bax, Bak doubly deficient MEFs (retrovirus pMIG)
T4 sequence (Q60930 1-295): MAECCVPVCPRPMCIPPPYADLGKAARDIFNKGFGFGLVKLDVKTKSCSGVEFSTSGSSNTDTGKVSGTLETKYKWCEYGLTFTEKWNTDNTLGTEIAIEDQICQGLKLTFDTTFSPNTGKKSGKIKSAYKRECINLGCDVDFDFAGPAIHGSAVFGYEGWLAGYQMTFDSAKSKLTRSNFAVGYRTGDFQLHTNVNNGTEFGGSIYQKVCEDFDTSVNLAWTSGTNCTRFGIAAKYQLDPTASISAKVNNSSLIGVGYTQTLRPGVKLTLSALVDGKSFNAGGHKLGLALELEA
Text: Murine vdac1, vdac2, N-terminal HA-tagged vdac2, N-terminal-HA tagged Bax or Bak, as well as wild type and mutant Bak (mBH1, W122A, G123E, R124A; mBH3, L75E) were cloned into the retroviral expression vector MSCV-IRES-GFP (pMIG). PcDNA3-tBID (wt and mutants) was described previously M. C. Wei et al., Genes Dev 14, 2060-71. (2000). Generation of amphotropic retroviruses and retroviral infection were described previously E. H. Cheng et al., Mol Cell 8, 705-11. (2001). Retroviral expression of each indicated protein was confirmed by immunoblot. […]
The strength of association between BIM-EL and VDAC2 was compared to the strength of the association, if any, between BIM-EL and BAK or BAX. Mitochondria isolated from Bax, Bak doubly deficient MEFs transduced with retrovirus expressing N-terminal HA-tagged BAX, BAK, or VDAC2 were solubilized in 1% CHAPS or 0.2% NP-40 buffer, followed by anti-HA immunoprecipitation. The immunoprecipitates were analyzed by an immunoblot developed with anti-BIM. […] These findings indicate that BH3-only competition for VDAC2 frees BAK, which, in the absence of its specific inhibitor VDAC2, is prone to auto-activating homo-oligomerization. […]

[3] = biological target: T1, N-terminal HA-tagged VDAC2; test: anti-HA immunoprecipitation in 1% CHAPS from Bax, Bak doubly deficient MEF mitochondria before or after etoposide, anti-PUMA immunoblot (FIG. 11B)
Protocol: For FIG. 11A, mitochondria isolated from vdac1 -/-, vdac3 -/- mouse fibroblasts with or without retroviral transduction of N-terminal HA-tagged VDAC2 were incubated with in vitro transcribed, translated PUMA protein at 30° C. for 30 min, followed by anti-HA immunoprecipitation in 1% CHAPS buffer. The immunoprecipitates were analyzed by an immunoblot developed with anti-PUMA. For FIG. 11B, mitochondria were isolated from Bax, Bak doubly deficient MEFs with or without retroviral transduction of N-terminal HA-tagged VDAC2 before or after etoposide treatment (10 μM) for 20 hours, followed by anti-HA immunoprecipitation in 1% CHAPS buffer. The immunoprecipitates were analyzed by an immunoblot developed with anti-PUMA (FIG. 11B, lower panel).

[4] = biological target: T5, VDAC2 (endogenous, or untagged murine vdac2 re-expressed by retrovirus) (murine, UniProt Q60930 1-295); test: restatement of the co-immunoprecipitation result
T5 construct: In mitochondria or whole cells; also called Voltage-Dependent Anion Channel 2; protein X
T5 sequence (looked up): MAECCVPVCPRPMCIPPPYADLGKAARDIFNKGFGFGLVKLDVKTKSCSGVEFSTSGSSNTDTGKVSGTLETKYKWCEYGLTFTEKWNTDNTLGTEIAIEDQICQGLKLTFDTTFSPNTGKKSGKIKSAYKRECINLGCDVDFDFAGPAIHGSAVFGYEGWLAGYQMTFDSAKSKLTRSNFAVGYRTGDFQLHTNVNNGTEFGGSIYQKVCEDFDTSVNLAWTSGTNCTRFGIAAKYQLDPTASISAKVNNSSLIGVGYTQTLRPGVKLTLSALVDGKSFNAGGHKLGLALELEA

VDAC1 (endogenous) = VDAC1 (endogenous) (mouse, UniProt Q60932-2 2-283, limits assumed); test: DSS crosslinking of vdac2-deficient ES cells, anti-BAK immunoblot
[5] = biological target: the molecule itself; test: Superdex 200 gel filtration of mitochondrial lysates in 2% CHAPS, anti-BAK immunoblot
Protocol: The chromatographic step of Superdex 200 (HR 10/30, Amersham-Pharmacia) was performed on an automatic fast protein liquid chromatography (FPLC) station (Amersham-Pharmacia) at 4° C. The column was equilibrated with buffer containing 2% CHAPS, 300 mM NaCl, 0.2 mM DTT, and 25 mM Hepes, pH 7.5 and calibrated with thyroglobulin (669 kD, Amersham-Pharmacia), ferritin (440 kD, Amersham-Pharmacia), catalase (232 kD, Amersham-Pharmacia), aldolase (158 kD, Amersham-Pharmacia), bovine serum albumin (66 kD, Calbiochem), and cytochrome c (14 kD, Sigma). 200 μl of mitochondrial lysates (1 mg/ml protein in the same buffer as above) was loaded onto the column, eluted at a flow rate of 0.3 ml/minute. Fractions of 0.6 ml were collected, precipitated by trichloroacetic acid, and analyzed by an immunoblot (fractions 16-31) developed with an anti-BAK Ab.

[6] = biological target: T5, VDAC2 (endogenous, or untagged murine …); test: DSS crosslinking of reconstituted Bax, Bak doubly-deficient MEFs, anti-BAK immunoblot

T2 sequence (Q07813 whole entry): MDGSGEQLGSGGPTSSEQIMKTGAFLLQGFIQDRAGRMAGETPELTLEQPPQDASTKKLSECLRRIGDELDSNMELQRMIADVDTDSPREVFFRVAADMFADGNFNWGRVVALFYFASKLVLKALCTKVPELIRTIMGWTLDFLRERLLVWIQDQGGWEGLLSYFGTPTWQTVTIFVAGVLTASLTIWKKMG
Sequence of BCL-XL (in Bax, Bak doubly deficient MEFs) (Q64373 whole entry): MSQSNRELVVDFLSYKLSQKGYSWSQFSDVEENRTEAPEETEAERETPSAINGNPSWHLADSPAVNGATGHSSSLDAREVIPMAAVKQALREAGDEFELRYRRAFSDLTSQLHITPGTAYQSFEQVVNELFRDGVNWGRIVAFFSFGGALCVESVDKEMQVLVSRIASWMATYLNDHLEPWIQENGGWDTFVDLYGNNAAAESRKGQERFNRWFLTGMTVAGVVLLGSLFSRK
Sequence of VDAC1 (endogenous) (Q60932 15-296 limits assumed): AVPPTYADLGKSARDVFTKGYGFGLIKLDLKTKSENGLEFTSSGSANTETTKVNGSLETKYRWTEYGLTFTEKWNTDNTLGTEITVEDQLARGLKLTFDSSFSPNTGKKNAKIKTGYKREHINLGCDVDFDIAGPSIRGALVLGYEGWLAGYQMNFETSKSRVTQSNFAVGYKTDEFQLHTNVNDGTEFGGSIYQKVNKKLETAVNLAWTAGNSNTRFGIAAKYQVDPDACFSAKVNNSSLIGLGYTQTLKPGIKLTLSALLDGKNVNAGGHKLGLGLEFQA

**Q.** Which MEFs died (MEFs) does the source give for `CN[C@@H]1[C@@H](O)[C@@H](O[C@@H]2[C@@H](O)[C@H](O[C@H]3O[C@H]([C@@H](C)O)[C@@H](O)[C@H](O)[C@H]3N)[C@@H](N)C[C@H]2N)OC[C@]1(C)O` [G418] here?
**A.** The MEFs died was 100%.

B1: BIM-EL (endogenous) (other, mouse, UniProt O54918-1 1-196, looked up)
chain: MAKQPSDVSSECDREGGQLQPAERPPQLRPGAPTSLQTEPQGNPDGEGDRCPHGSPQGPLAPPASPGPFATRSPLFIFVRRSSLLSRSSSGYFSFDTDRSPAPMSCDKSTQTPSPPCQAFNHYLSAMASIRQSQEEPEDLRPEIRIAQELRRIGDEFNETYTRRVFANDYREAEDHPQMVILQLLRFIFRLVWRRH
notes: also called BH3-only molecule BIM-EL
**Q.** Does B1 bind [1]?
**A.** Result: binds

B2: N-terminal HA-tagged BAK (other, murine, UniProt O08734 1-209, looked up)
chain: MASGQGPGPPKVGCDESPSPSEQQVAQDTEEVFRSYVFYLHQQEQETQGAAAPANPEMDNLPLEPNSILGQVGRQLALIGDDINRRYDTEFQNLLEQLQPTAGNAYELFTKIASSLFKSGISWGRVVALLGFGYRLALYVYQRGLTGFLGQVTCFLADIILHHYIARWIAQRGGWVAALNFRRDPILTVMVIFGVVLLGQFVVHRFFRS
notes: also called HA-BAK; not shown: N-terminal HA tag
**Q.** Does B2 bind [2]?
**A.** Result: no binding

B3: HA-tagged VDAC2: N-terminal HA-tagged murine VDAC2, retrovirally expressed (protein)
chain: MAECCVPVCPRPMCIPPPYADLGKAARDIFNKGFGFGLVKLDVKTKSCSGVEFSTSGSSNTDTGKVSGTLETKYKWCEYGLTFTEKWNTDNTLGTEIAIEDQICQGLKLTFDTTFSPNTGKKSGKIKSAYKRECINLGCDVDFDFAGPAIHGSAVFGYEGWLAGYQMTFDSAKSKLTRSNFAVGYRTGDFQLHTNVNNGTEFGGSIYQKVCEDFDTSVNLAWTSGTNCTRFGIAAKYQLDPTASISAKVNNSSLIGVGYTQTLRPGVKLTLSALVDGKSFNAGGHKLGLALELEA
modifications: left off: small tags and cut ends
notes: N-terminal HA-tagged murine VDAC2, retrovirally expressed
**Q.** Which results are given for B3?
**A.** co-precipitation of endogenous BAX (BAX): not; co-precipitation of endogenous BAK (BAK): efficiently co-precipitated

B4: PUMA (endogenous, induced by etoposide) (other, mouse, UniProt Q99ML1 1-193, looked up)
chain: MARARQEGSSPEPVEGLARDSPRPFPLGRLMPSAVSCSLCEPGLPAAPAAPALLPAAYLCAPTAPPAVTAALGGPRWPGGHRSRPRGPRPDGPQPSLSPAQQHLESPVPSAPEALAGGPTQAAPGVRVEEEEWAREIGAQLRRMADDLNAQYERRRQEEQHRHRPSPWRVMYNLFMGLLPLPRDPGAPEMEPN
notes: also called induced PUMA
**Q.** What does the source list for B4?
**A.** interaction with HA-tagged VDAC2 (co-immunoprecipitation) (VDAC2): stable interaction; binding result [3]: binds

B5: BAK (endogenous, or wild type Bak reconstituted by retrovirus) (other, murine, UniProt O08734 2-209, looked up)
chain: ASGQGPGPPKVGCDESPSPSEQQVAQDTEEVFRSYVFYLHQQEQETQGAAAPANPEMDNLPLEPNSILGQVGRQLALIGDDINRRYDTEFQNLLEQLQPTAGNAYELFTKIASSLFKSGISWGRVVALLGFGYRLALYVYQRGLTGFLGQVTCFLADIILHHYIARWIAQRGGWVAALNFRRDPILTVMVIFGVVLLGQFVVHRFFRS
notes: Integral mitochondrial membrane protein, tested in mitochondria or whole cells; also called endogenous BAK; wt Bak
**Q.** Does B5 bind [4]?
**A.** Result: binds

**Q.** Does B5 bind (VDAC1 (endogenous))?
**A.** Result: no binding

**Q.** Does B5 bind [5]?
**A.** Result: binds

B6: mutant Bak mBH3 (L75E) (other, murine, UniProt O08734 2-209, looked up)
chain: ASGQGPGPPKVGCDESPSPSEQQVAQDTEEVFRSYVFYLHQQEQETQGAAAPANPEMDNLPLEPNSILGQVGRQEALIGDDINRRYDTEFQNLLEQLQPTAGNAYELFTKIASSLFKSGISWGRVVALLGFGYRLALYVYQRGLTGFLGQVTCFLADIILHHYIARWIAQRGGWVAALNFRRDPILTVMVIFGVVLLGQFVVHRFFRS
notes: also called BAK mutated within the BH3 domain (L75E)
**Q.** Does B6 bind [6]?
**A.** Result: no binding
